Measured values: the supplement of paper PMC9112550, “Optimization of the antimicrobial peptide Bac7 by deep mutational scanning” (BMC Biology, 2022)

Test system: Escherichia coli TOP10
Assay: shrunken log2 fold change of peptide-encoding DNA abundance (4.5 h post-induction vs induction); higher = less antimicrobial activity (less host growth inhibition)
Conditions: time post-induction: 4.5 h; library: site-saturation at positions 5, 18, 19, 20
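Note: peptides expressed intracellularly from a pBAD plasmid library in pooled LB shake-flask culture, induced with 0.3% L-arabinose, DNA abundance read by NGS, three biological replicates, DESeq2 with apeglm shrinkage.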

Row | Sequence | shrunken log2 fold change
1 | RRIRRRPPRLPRPRPRPPPQPRP | 1.27
2 | RRIRERPPRLPRPRPRPKYVPRP | -0.475
3 | RRIRPRPPRLPRPRPRPMLAPRP | 0.281
4 | RRIRIRPPRLPRPRPRPLYCPRP | -0.744
5 | RRIRSRPPRLPRPRPRPYFSPRP | -0.611
6 | RRIRLRPPRLPRPRPRPEYHPRP | 0.0779
7 | RRIRARPPRLPRPRPRPDHLPRP | -0.0183
8 | RRIRARPPRLPRPRPRPMDSPRP | -0.104
9 | RRIRSRPPRLPRPRPRPMCVPRP | -0.134
10 | RRIRGRPPRLPRPRPRPMYSPRP | 0.208
11 | RRIRIRPPRLPRPRPRPKDNPRP | -0.606
12 | RRIRVRPPRLPRPRPRPTTQPRP | 0.0531
13 | RRIRTRPPRLPRPRPRPSFKPRP | -0.465
14 | RRIRWRPPRLPRPRPRPLVSPRP | 1.59
15 | RRIRVRPPRLPRPRPRPGKMPRP | -0.0672
16 | RRIRCRPPRLPRPRPRPSDPPRP | -0.317
17 | RRIRQRPPRLPRPRPRPDMKPRP | 0.26
18 | RRIRIRPPRLPRPRPRPYHWPRP | -0.275
19 | RRIRSRPPRLPRPRPRPQWNPRP | -0.259
20 | RRIRVRPPRLPRPRPRPEQAPRP | 0.358
21 | RRIRTRPPRLPRPRPRPWCHPRP | -0.732
22 | RRIRCRPPRLPRPRPRPDRQPRP | 0.00868
23 | RRIRKRPPRLPRPRPRPWHPPRP | 0.143
24 | RRIRCRPPRLPRPRPRPNFDPRP | -0.179
25 | RRIRMRPPRLPRPRPRPFNEPRP | -0.488

Row | Sequence | shrunken log2 fold change
26 | RRIRKRPPRLPRPRPRPAVYPRP | -0.0285
27 | RRIRQRPPRLPRPRPRPPYDPRP | -0.152
28 | RRIRVRPPRLPRPRPRPELGPRP | 0.308
29 | RRIRERPPRLPRPRPRPQAPPRP | -0.0683
30 | RRIRARPPRLPRPRPRPICHPRP | 0.0398
31 | RRIRYRPPRLPRPRPRPKCGPRP | 0.0111
32 | RRIRTRPPRLPRPRPRPSFHPRP | -0.772
33 | RRIRERPPRLPRPRPRPTILPRP | -0.0814
34 | RRIRPRPPRLPRPRPRPNWWPRP | 0.717
35 | RRIRRRPPRLPRPRPRPTHLPRP | 0.578
36 | RRIRHRPPRLPRPRPRPNINPRP | -1.31
37 | RRIRERPPRLPRPRPRPKSTPRP | -0.42
38 | RRIRIRPPRLPRPRPRPSQNPRP | -0.766
39 | RRIRDRPPRLPRPRPRPHPRPRP | 0.081
40 | RRIRKRPPRLPRPRPRPGKEPRP | 0.266
41 | RRIRFRPPRLPRPRPRPEGKPRP | 0.143
42 | RRIRTRPPRLPRPRPRPQPWPRP | 0.314
43 | RRIRSRPPRLPRPRPRPETRPRP | 0.192
44 | RRIRQRPPRLPRPRPRPQHQPRP | 0.26
45 | RRIRMRPPRLPRPRPRPWICPRP | 0.0396
46 | RRIRIRPPRLPRPRPRPQTWPRP | -0.169
47 | RRIRERPPRLPRPRPRPMHGPRP | -0.00992
48 | RRIRIRPPRLPRPRPRPTMIPRP | -0.224
49 | RRIRMRPPRLPRPRPRPSFDPRP | 0.485
50 | RRIRTRPPRLPRPRPRPNQEPRP | 0.0313

Row | Sequence | shrunken log2 fold change
51 | RRIRLRPPRLPRPRPRPLRFPRP | 0.477
52 | RRIRLRPPRLPRPRPRPKRHPRP | 0.208
53 | RRIRYRPPRLPRPRPRPPIHPRP | -0.958
54 | RRIRLRPPRLPRPRPRPIETPRP | -0.0258
55 | RRIRGRPPRLPRPRPRPWHFPRP | -0.0456
56 | RRIRLRPPRLPRPRPRPKNWPRP | -0.0113
57 | RRIRERPPRLPRPRPRPYEYPRP | -0.387
58 | RRIRLRPPRLPRPRPRPDLVPRP | 0.00214
59 | RRIRLRPPRLPRPRPRPHLCPRP | -0.355
60 | RRIRARPPRLPRPRPRPCINPRP | -0.353
61 | RRIRYRPPRLPRPRPRPLLVPRP | -0.692
62 | RRIRERPPRLPRPRPRPWGKPRP | -0.042
63 | RRIRRRPPRLPRPRPRPLWKPRP | 0.115
64 | RRIRPRPPRLPRPRPRPMKPPRP | 0.00333
65 | RRIRQRPPRLPRPRPRPGMFPRP | 0.00926
66 | RRIRTRPPRLPRPRPRPSEAPRP | 0.0182
67 | RRIRDRPPRLPRPRPRPWKVPRP | -0.0565
68 | RRIRCRPPRLPRPRPRPANWPRP | 0.938
69 | RRIRDRPPRLPRPRPRPVFCPRP | 0.0325
70 | RRIRYRPPRLPRPRPRPMTVPRP | -0.0212
71 | RRIRPRPPRLPRPRPRPFTGPRP | -0.0818
72 | RRIRARPPRLPRPRPRPCTEPRP | -0.0123
73 | RRIRDRPPRLPRPRPRPLSCPRP | -0.212
74 | RRIRIRPPRLPRPRPRPGWTPRP | 0.11
75 | RRIRMRPPRLPRPRPRPAQKPRP | 1.2

Row | Sequence | shrunken log2 fold change
76 | RRIRHRPPRLPRPRPRPALLPRP | 0.284
77 | RRIRERPPRLPRPRPRPFPEPRP | -0.426
78 | RRIRRRPPRLPRPRPRPCDQPRP | 0.0305
79 | RRIRGRPPRLPRPRPRPDKLPRP | -0.0186
80 | RRIRCRPPRLPRPRPRPYAFPRP | -0.425
81 | RRIRERPPRLPRPRPRPQPTPRP | 0.234
82 | RRIRMRPPRLPRPRPRPDQEPRP | 0.0392
83 | RRIRMRPPRLPRPRPRPVDQPRP | 0.0463
84 | RRIRLRPPRLPRPRPRPWYQPRP | -0.149
85 | RRIRIRPPRLPRPRPRPQKSPRP | -0.403
86 | RRIRARPPRLPRPRPRPGTSPRP | 0.24
87 | RRIRPRPPRLPRPRPRPGVNPRP | -0.342
88 | RRIRTRPPRLPRPRPRPGMYPRP | -0.3
89 | RRIRFRPPRLPRPRPRPEHRPRP | 0.105
90 | RRIRRRPPRLPRPRPRPIIVPRP | 0.0931
91 | RRIRKRPPRLPRPRPRPKRYPRP | 0.032
92 | RRIRHRPPRLPRPRPRPTTDPRP | -0.136
93 | RRIRVRPPRLPRPRPRPTIVPRP | -0.497
94 | RRIRERPPRLPRPRPRPQPYPRP | -0.43
95 | RRIRSRPPRLPRPRPRPVIQPRP | -0.178
96 | RRIRYRPPRLPRPRPRPYWAPRP | -1.11
97 | RRIRNRPPRLPRPRPRPSNWPRP | -0.203
98 | RRIRLRPPRLPRPRPRPPRFPRP | 0.209
99 | RRIRERPPRLPRPRPRPNGIPRP | -0.115
100 | RRIRNRPPRLPRPRPRPTSPPRP | 0.113

Row | Sequence | shrunken log2 fold change
101 | RRIRWRPPRLPRPRPRPADKPRP | 0.141
102 | RRIRHRPPRLPRPRPRPVARPRP | 0.227
103 | RRIRVRPPRLPRPRPRPKRSPRP | 0.112
104 | RRIRERPPRLPRPRPRPMDDPRP | -0.015
105 | RRIRPRPPRLPRPRPRPEINPRP | -0.264
106 | RRIRMRPPRLPRPRPRPIPLPRP | 0.00552
107 | RRIRVRPPRLPRPRPRPQNFPRP | -0.0453
108 | RRIRFRPPRLPRPRPRPCVAPRP | -0.201
109 | RRIRHRPPRLPRPRPRPDHNPRP | -0.956
110 | RRIRARPPRLPRPRPRPPPCPRP | 0.979
111 | RRIRERPPRLPRPRPRPFRIPRP | -0.367
112 | RRIRQRPPRLPRPRPRPYKRPRP | -0.213
113 | RRIRPRPPRLPRPRPRPAIGPRP | -0.0136
114 | RRIRTRPPRLPRPRPRPEMEPRP | 0.0702
115 | RRIRKRPPRLPRPRPRPVPTPRP | 0.916
116 | RRIRDRPPRLPRPRPRPQCSPRP | 0.0391
117 | RRIRMRPPRLPRPRPRPELMPRP | 3.86
118 | RRIRFRPPRLPRPRPRPQGYPRP | -0.249
119 | RRIRRRPPRLPRPRPRPQYGPRP | -0.409
120 | RRIRVRPPRLPRPRPRPNNLPRP | -0.534
121 | RRIRNRPPRLPRPRPRPIFGPRP | -0.0237
122 | RRIRRRPPRLPRPRPRPWCWPRP | 0.123
123 | RRIRTRPPRLPRPRPRPAGIPRP | -0.0928
124 | RRIRMRPPRLPRPRPRPPYWPRP | 0.37
125 | RRIRWRPPRLPRPRPRPIYGPRP | -0.0358
